Data: the DeepSol protein solubility set

experiment: soluble on expression in E. coli; label from the status in PepcDB or PDB records

| Sequence | soluble on expression in E. coli |
| --- | --- |
| MSLTTMVPTVMNTPTRIEAGRQKFLIFDAPSQENLPAYIEEMRAYEVTDLVRTCERTYDDKTVLASGIRPHELIFPDGEAPPDDVIDEWLTLCNAVSQQRGAIAIHCVAGLGRAPVLVAIALIEKGMDPMDAIMFIRERRKGAINRRQLQFLKGYKRRSNYKEGHHHHHH | soluble |
| MGSDKIHHHHHHANAAKKDDAKFKPAADRDGPRWRTGIEGQRIADLGDGRFLNPVLSGDYPDPSVLKDGDDYYMTHSSFDSAPGLLIWHSRDLVNWRPLGPALAKPLGTVFAVDIAKHDGRYFIYIPFMKAPWSTDLPSFANTFVIHAPSMEGPWSDPIDLKVGGLIDPGHVVGEDGHRYLFFNDGKRVRLTADGLATDGPVETAYQAWRYPDDWITEAYSPEGPKLFRRGDYFYLVNAVGGTSGPATGHMIVAARSRSIHGPWENCPHNPIQRTHSRQEMWWSRGHATCVEGPGGQWYMVYHGYENGYHTLGRQTLVEPIEWTPDGWFRATGGDLSEPLRKPRGPAQPHGMAHSDSFHTDRLGTLWNLYGSAPAETARIAIGDGALTLKAKGKGPSDGVVLTQQVGDRSYEVSVELELTDKTSGGLLLFFDDRLFLGMGIDGHRMTTWRGGKASYWPEPAPPARRIFMRITNQEQVVTFYYSLDGKNWTRHGVRSEVTGYNANTVDNLLSLRPALYAAGEGEVLFRNFTYRALA | not soluble |
| MKNVGFIGWRGMVGSVLMQRMVEERDFDAIRPVFFSTSQLGQAAPSFGGTTGTLQDAFDLEALKALDIIVTCQGGDYTNEIYPKLRESGWQGYWIDAASSLRMKDDAIIILDPVNQDVITDGLNNGIRTFVGGNCTVSLMLMSLGGLFANDLVDWVSVATYQAASGGGARHMRELLTQMGHLYGHVADELATPSSAILDIERKVTTLTRSGELPVDNFGVPLAGSLIPWIDKQLDNGQSREEWKGQAETNKILNTSSVIPVDGLCVRVGALRCHSQAFTIKLKKDVSIPTVEELLAAHNPWAKVVPNDREITMRELTPAAVTGTLTTPVGRLRKLNMGPEFLSAFTVGDQLLWGAAEPLRRMLRQLA | soluble |
| GPGSMEPKRSGNMACVERERERDYWRHLERLNNQRCRIDNTIPVSCAYVRPIGSMRRNPARAEQVNRDNQKLVEKMVHIMNTRGGVDTSEPWRDYNKAINSQRRRNQEQANIARENAKLLDRLERTQPTYRSEKFEADRRRNEEFAARASRYPYQPMDRTRY | soluble |
| MSLNKLLSQLASVEILTPKIDDTLWFFKDILGLHEVGRKDRSVYLRGWEDWYAYSLKVTESDTAGVKEIVWRTYSEKDLIDSINIVNSNGLGLGWDEGEPDMGVGKGYKFILPSGQIGKLVWEMKIWRASGELRSGYKARPMKKPTKGVQAKDLSHIFIFAYNDESLAKTVELLKRLTFKVNEILKEGDKRIAYWMAVNGTAHDLAVSLDPSGVPARLNHVTFNVDYADDILKAADFYTDYGLEIVGGPLRHGITDSHSLYVKEPGGNVIELLHGGYLNVVPDWEPIVWDTKEDENRWLYYWGHVKEAFWHGEGHHHHHH | not soluble |
| MAGDPMDKNKLFFIETWGCQMNAEDSEKLAGMLKEMKYEATDNREDADLIIFNTCCVRENAELKVYGNLGTLKKLKDKKPNLIITVCGCMMQQRDMAEHIKKRFPFVDIVMGTHNTQMFPQYLKKVENERTSVVEIWDKEEGIVEGMPIYRSYDMKAFVTIMYGCNNFCTYCIVPYVRGRERSRKPEDIENEIKELVKKGYKEITLLGQNVNSYGKSLDEEMNFALLLRRLNNIEGLLRIRFMTSHPKDLTDDVIAAIADCDKVCEHIHLPVQSGSTTILNKMNRNYTREDYINLVNKIKSGIKNVAITTDIIVGFPGETEEDFEDTLSLVKEVEYDSAFTFLYSIREGTPAAKYENQIPDEVKHKRFNKLLEAVNLISEKKNKEYEGKIVEILVEGKSKNDGSKLMGRTRTGKLVNFEGLESSIGKLINVKITKAQAFSLVGEEVLEHHHHHH | not soluble |
| MSGGQQERHVLILNTVGGRRAIALEAAAYSLGRDESNAIVIDFETVSRQHAILLRVPVPGTTSYRYRLVDGNANGKPSTNGTFVNGKRISSHELQHGDVILFGRKAKASYLLLSMADTEFSQYLQSIAFQSIKSDLRGAKETLVGMELSGELRRTPNRELVAAGATQLHPELEHHHHHH | soluble |
| MSLIKMQVWKKLFAKSPFKPLIRHAEVVVQTVETLEKALDSWARGDYENMKEYAKKVDDLEDIADKIKSELRDSITSKLLMPVQRTDILEYLHMQDKIADAAEDTAKWLLIKRNLDSIPNDIKDIILKMGKESIKAAKLVYEAIKQLDNVLESGFAEKEIKKEYKIIKQIEEVESKIDGLDSKLMEIVFTSELDWKDGLYILNIARTLSNISDKAKDTAERIRVLMNKEGHHHHHH | not soluble |
| MKYLHTEKDYLDLLLAVKRKFDYQRSIVPYIVYFLLKTGMRFGELVALTWNEVDFDRGLLKTYRRYNTLSHKFVPPKNKTSIRMVPIDEECIKILRLLQTEQERANMELGIKNRYRMIFQHFGYIHSVPDIASVNKALSVLLNELDIYPIITTKGARHTYGSYLWHKGFDLGVIAKILGHRDISMLVEVYGHTLEEKIFEEFNQIRDIWKDCSLEHHHHHH | not soluble |
| MPSSSNSAAFSLDEFAKALDKHDYHAEKGQTVHGKICQHANEGVYVDFGGKSPGFVPVQELGLRPHAEIEDSFPLDSAWDFLVTSEQNDEGQVRLSRRQLQIQQSWENLAELEESGKTLEMVVTGTNKGGVVGDVEGLRGFIPRSHLMHKDNMDALVGQVLKAHILEANQDNNKLVLTQRRIQQAESMGKIAAGNIYEGKVAKIQPYGVFVEIEGVTGLLHVSQVSGTRVDSLNTLFAFGQAISVYVQEIDEYKNRISLSTRILETYPGELVEKFDEMMADAPNRLPLVQSKQNLGDKQEQLEKSLEHHHHHH | not soluble |
| MAHHHHHHMSYSFVVVPPPVPAATPAFEAHVSTLLRHVPHPTFITCTSYSPYFTSAAAESLAAAADTADESANAMEASVTQQALSYLHQCVAADVGLVLTVTATRATSHAESVQSTQGGDQDSQQHPKQHTSSSSASMVPTTTTLTGASRGGTAAILADFIGRTSAAPATKLGTANSQEATRHRSRGLMVLRGDDGGYTRQCMIAAQKGGASASPPSLSPNPYVDFADGVDLLRFIHSTLRGRDGEAMCEITGDEPAGAAVCLCIGGYPQGHVLDRQWGADAATAAAVPSAQSPLPCQTLASLRFLDEVDTVFADTEAQLRRAQGTHSAPRPPSLESCVEAAEALFARLGAVRRLWTTPSYYPPSVRAACTRRTVANKVFLRPPGTRQCVADSAWDGCGSAGAHVVVTQVITSATEFFDYVEDIRNALRSSVPPARGVPCDRGRDGAAATEARGASVPCLQLRAASALPSSSPSLVIVPGLMAPLRAEQFLRSALQLKVIPSVPFQRALREYEGALHSAVETLRSAVSSNAIDVYAEAKERAEACFQEWMVAITVDIVRDLRARGYTHVNFSAFQYGCGDAVGCVVAALAAEGREEVVEEP | not soluble |
| MGSDKIHHHHHHMSPDVDIKALRCFLALAQELSFGRAAERMNLTQPSLSAQIRKLEDQVGHRLFERTTRAVHLSPTGKALIEQARTFVSQADAFAAHLSAWRERPDRRMVLGAPIYTFELPEHGALLSAIARELPDMSLRVDNGFANSLVEGLIKGSVDMAMVVAAAVPHDRYLADMAGEGAGELEMPDGLQRITLSDEQIGLAIPEEHPLASYDIVPPEALSGSVIAMLAPLHGRSLYRPISVWLSAAGATGFLPPEAHAFALERYCREYRIPAISIAQFRPRETGNVVYRPAGGLNVRTELAVLRSTRKQRSSIEERLWDLASSLGR | not soluble |
| QSKFKKYSKMPLASGMTGKDVAEKMLHDNGIYDVRVTSTPGMLTDHYNPANKTVNLSEGVYGSNSVAAAAVAAHECGHAVQHARAYAPLKMRS | not soluble |
| MKVSKFGGSSVSNATQIKKVLNIVNSDPERKIVIVSAPGKRHDNDIKTTDLLIRLYEKVINHLDYHDKKREIIQRYDDIVKELQMDESILRTIDVTLEHYINQLKNEPKRLLDALLSCGEDFNAQLIALYNNSQGIPTKYISPKEAGIFVTDVPQEAQILDSAYSEIKKLRDYDEKLIIPGFFGVSHEGYIVTFPRGGSDITGAIISSGVRATIYENFTDVSGIYKANPNIIKDPELIEEITYREMRELSYAGFSVFHDEALQPLYKDRIPVVIKNTNRPQDKGTFIVHDREINAKNVISGISCDKDFTVINIKKYLMNRQVGFTRKILGVLEDNNISFDHMPSGIDTISIVMRSKQIQNKETKVLNEIRQKCDVDELSIEHDLAILMIVGEGMNKVIGTANKITHALAESKINLKMINQGASEISMMFGIHVDDAEKAVLSTYEFCYHGVALKNLCDKNMAGDPLEHHHHHH | not soluble |
| SMVLLTMIARVADGLPLAASMQEDEQSGRDLQQYQSQAKQLFRKLNEQSPTRCTLEAGAMTFHYIIEQGVCYLVLCEAAFPKKLAFAYLEDLHSEFDEQHGKKVPTVSRPYSFIEFDTFIQKTKKLYIDSRARRNLGSINTELQDVQRIMVANIEEVLQRGEALSALDSKANNLSSLSKKYRQDAKYLNMRSTYAK | soluble |
| MDRVIEDKELGRLVVRDNVRAKRLVFRTKADAIYISIPLGVTMREVKEAIEKLRPRLLDSRQKLVRPLIDLNYRIETEYFKLSLVSGKRERFLAHSELGEMRIICPPTADFTDSNLQDWLRKVIEEALRRNAKIILPPRLYMLSEKHRLPYESVQINSSRGRWGSCSSRKKINLSYFLVLLPKHLIDYVLLHELCHTCEMNHGDRFWNLLNGLTDGKALELREELKRYKTEILEHHHHHH | not soluble |
| MAFSGSQAPYLSPAVPFSGTIQGGLQDGLQITVNGTVLSSSGTRFAVNFQTGFSGNDIAFHFNPRFEDGGYVVCNTRQNGSWGPEERKTHMPFQKGMPFDLCFLVQSSDFKVMVNGILFVQYFHRVPFHRVDTISVNGSVQLSYISFQNPRTVPVQPAFSTVPFSQPVCFPPRPRGRRQKPPGVWPANPAPITQTVIHTVQSAPGQMFSTPAIPPMMYPHPAYPMPFITTILGGLYPSKSILLSGTVLPSAQRFHINLCSGNHIAFHLNPRFDENAVVRNTQIDNSWGSEERSLPRKMPFVRGQSFSVWILCEAHCLKVAVDGQHLFEYYHRLRNLPTINRLEVGGDIQLTHVQT | soluble |
| MSAPLYMQIKQFILDKIDSGDWMVGQRIATEIELTEQFGVSRMTVNKAIRDLVNEGKLQRRPRLGTFVCDPSEKSESPLLDIRNIAEEVSDRGRQYSSKVVQQVAIKADDSIAIKLGVMLGTTVFYSEIIHYEDSTPIQLELRWVNSQYAPSYLSQDFTQITPNQYLSNNCPLSAIEHTVEAIVPDNRIKLDLKMQANEPCLLLNRRTWSQDKLVSTALLYHPGNKYKLSSKVLL | not soluble |
| MSVNPFFDPRTLGEMVFGDNGRLDREYVPISENNDDLSDCRNEIVDTHEKFSVNLNVPDVKPEELKINLEGRKLSIKAEHQEIENDNISTTQTYSKSIVLPEDVDVTHLSSNLSEDGKLLIEVPKVEAKKTNFFGFLSKFRCMPESQ | not soluble |
| MIISAASDYRAAAQRTLPPFLFHYIDGGAYAEYTLRRNVEDLSQVALRQRVLKNMSDLSLETTLFNETLSMPVALAPVGLCGMYARRGEVQAAAAADAKGIPFTLSTVSVCPIEEVAPTIKRPMWFQLYVLRDRGFMRNALERAKAAGCSTLVFTVDMPTPGARYRDAHSGMSGPNAAMRRYWQAVMHPKWAWDVGLNGRPHDLGNISAYLGKPTGLEDYIGWLANNFDPSISWKDLEWIREFWDGPMVIKGILDPEDARDAVRFGADGIVVSNHGGRQLDGVLSSARALPAIADAVKGDIAILADSGIRNGLDVVRMIALGADTVLLGRAYLYALATAGKAGVANLLDLIEKEMKVAMTLTGAKSISEISGDSLVQELGKSLPAALAPMSKGDAA | not soluble |
